Test results reported in article PMC4605320, “Interference activity of a minimal Type I CRISPR–Cas system from Shewanella putrefaciens”.

Molecular target: T1, Cas1821 (Cascade backbone);Cas1822;Cas6f (Shewanella putrefaciens …, UniProt A4Y6G1;A4Y6G2;A4Y6G3 1-315;1-336;1-183, ||)
T1 sequence 1: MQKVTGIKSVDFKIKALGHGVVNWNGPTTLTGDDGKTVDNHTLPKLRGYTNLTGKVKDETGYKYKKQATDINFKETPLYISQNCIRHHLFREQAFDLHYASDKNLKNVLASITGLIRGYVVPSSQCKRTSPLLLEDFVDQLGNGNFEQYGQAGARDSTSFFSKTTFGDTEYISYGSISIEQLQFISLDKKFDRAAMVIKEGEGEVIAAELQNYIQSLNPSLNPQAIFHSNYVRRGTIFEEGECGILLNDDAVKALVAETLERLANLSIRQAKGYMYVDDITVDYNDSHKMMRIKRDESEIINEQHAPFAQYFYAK
T1 sequence 2: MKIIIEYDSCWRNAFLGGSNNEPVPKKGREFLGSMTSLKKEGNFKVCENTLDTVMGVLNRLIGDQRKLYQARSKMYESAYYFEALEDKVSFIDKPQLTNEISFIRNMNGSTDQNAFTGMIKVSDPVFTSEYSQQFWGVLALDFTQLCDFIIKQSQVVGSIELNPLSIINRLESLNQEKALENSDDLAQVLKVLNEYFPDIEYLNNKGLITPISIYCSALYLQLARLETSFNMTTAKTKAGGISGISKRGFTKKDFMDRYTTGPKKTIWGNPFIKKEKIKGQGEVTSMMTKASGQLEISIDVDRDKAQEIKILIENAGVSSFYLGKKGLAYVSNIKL
T1 sequence 3: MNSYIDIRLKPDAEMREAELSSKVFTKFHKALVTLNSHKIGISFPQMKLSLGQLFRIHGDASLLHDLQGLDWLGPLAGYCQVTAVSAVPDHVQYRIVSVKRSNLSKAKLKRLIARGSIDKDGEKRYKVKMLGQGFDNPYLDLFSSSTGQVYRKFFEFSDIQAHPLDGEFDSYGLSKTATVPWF
Experiment: co-purification (Ni-NTA, size exclusion; RNA by urea PAGE); complex assembled in E. coli; EMSA: 6% native PAGE, 250-500 nM Cas1821, buffer and temperature not given; Cascade SEC: 50 mM HEPES-NaOH pH 7.0, 150 mM NaCl, 1 mM DTT
Conditions: protein: recombinant;recombinant;recombinant; tags: N-terminal His;none;none; chain copies: 6;1;1; 3' five base pair stem-loop (predicted)

B1: mature crRNA, spacer4 (60 nt) (structured_RNA)
RNA: CUUAGAAAUAUCGCCCAGCAAGACGCGCAAACCUAUAACCGUUCACCGCCGCACAGGCGG
B1: binds.
